Numbered stars: 1 amine (or outer) side, 2 acyl side, 3 side chain; on linkers, the order of the positions; unused ones are H or OH. Bridge positions count the residues as written; N and C are the ends. Side chains are listed from the residue outwards. Ends that are not written are not given here. * marks the point of attachment. C20 diacid = O=C(O)CCCCCCCCCCCCCCCCCCC(=O)*; γGlu = O=C(O)[C@H](CCC(=O)[*:2])N[*:1]
T1: rat calcitonin receptor (rat, UniProt P32214 25-516)
T1 construct: whole, on cells; Used as membranes prepared from the transfected cells; also called rCTR; rCT
T1 sequence (looked up): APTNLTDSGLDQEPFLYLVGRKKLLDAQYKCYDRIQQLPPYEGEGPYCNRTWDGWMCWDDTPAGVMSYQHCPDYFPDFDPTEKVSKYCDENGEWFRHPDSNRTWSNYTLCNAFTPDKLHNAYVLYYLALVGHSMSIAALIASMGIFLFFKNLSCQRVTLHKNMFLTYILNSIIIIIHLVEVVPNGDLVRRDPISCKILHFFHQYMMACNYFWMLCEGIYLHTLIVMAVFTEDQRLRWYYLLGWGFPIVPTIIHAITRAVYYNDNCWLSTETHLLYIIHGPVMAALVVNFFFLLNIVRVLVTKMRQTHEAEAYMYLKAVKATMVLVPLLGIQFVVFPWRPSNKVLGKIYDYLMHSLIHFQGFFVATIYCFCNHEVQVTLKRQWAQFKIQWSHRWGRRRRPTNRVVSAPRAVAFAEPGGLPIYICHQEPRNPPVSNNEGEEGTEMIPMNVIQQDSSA

T2: rat amylin receptor (rat calcitonin receptor with rat RAMP 3) (rat, UniProt P32214 25-516; Q9JJ73 23-147)
T2 construct: whole, on cells; Used as membranes prepared from the transfected cells; also called rAmylin-R; rAmylin
T2 sequence (looked up) 1: T1 sequence (looked up)
T2 sequence (looked up) 2: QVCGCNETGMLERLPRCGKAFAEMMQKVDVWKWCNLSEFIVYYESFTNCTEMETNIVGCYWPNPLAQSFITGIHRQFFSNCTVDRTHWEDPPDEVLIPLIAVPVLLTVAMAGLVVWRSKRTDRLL

T3: human calcitonin receptor (human, UniProt P30988 25-474)
T3 construct: whole, on cells; Used as membranes prepared from the transfected cells; also called hCTR; hCT
T3 sequence (looked up): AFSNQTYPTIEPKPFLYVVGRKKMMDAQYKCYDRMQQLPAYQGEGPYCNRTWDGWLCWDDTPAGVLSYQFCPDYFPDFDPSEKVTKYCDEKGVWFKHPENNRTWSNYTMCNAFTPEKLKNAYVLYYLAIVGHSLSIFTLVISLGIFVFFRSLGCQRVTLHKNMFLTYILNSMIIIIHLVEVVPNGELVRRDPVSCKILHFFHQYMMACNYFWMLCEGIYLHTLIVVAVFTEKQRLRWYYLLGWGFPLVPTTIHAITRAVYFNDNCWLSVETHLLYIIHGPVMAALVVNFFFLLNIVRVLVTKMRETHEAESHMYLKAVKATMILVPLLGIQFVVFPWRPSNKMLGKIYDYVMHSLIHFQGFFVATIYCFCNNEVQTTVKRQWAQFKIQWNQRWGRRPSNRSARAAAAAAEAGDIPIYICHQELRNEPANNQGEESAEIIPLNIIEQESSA

B1: N^ε1N^ε1-[(4S)-4-carboxy-4-(19-carboxynonadecanoylamino)butanoyl]-[His14,Arg17,Pro21,Pro27,Pro34]-h-amylin (peptide)
peptide: K([γGlu-C20 diacid])CNTATCATQRLAHFLRHSSPNFGAIPSSTNVGPNTY-NH2
modifications: disulfide 2-7; N-terminus assumed
SMILES: CC[C@H](C)[C@H](NC(=O)[C@H](C)NC(=O)CNC(=O)[C@H](Cc1ccccc1)NC(=O)[C@H](CC(N)=O)NC(=O)[C@@H]1CCCN1C(=O)[C@H](CO)NC(=O)[C@H](CO)NC(=O)[C@H](Cc1c[nH]cn1)NC(=O)[C@H](CCCNC(=N)N)NC(=O)[C@H](CC(C)C)NC(=O)[C@H](Cc1ccccc1)NC(=O)[C@H](Cc1c[nH]cn1)NC(=O)[C@H](C)NC(=O)[C@H](CC(C)C)NC(=O)[C@H](CCCNC(=N)N)NC(=O)[C@H](CCC(N)=O)NC(=O)[C@@H](NC(=O)[C@H](C)NC(=O)[C@@H]1CSSC[C@H](NC(=O)[C@@H](N)CCCCNC(=O)CC[C@H](NC(=O)CCCCCCCCCCCCCCCCCCC(=O)O)C(=O)O)C(=O)N[C@@H](CC(N)=O)C(=O)N[C@@H]([C@@H](C)O)C(=O)N[C@@H](C)C(=O)N[C@@H]([C@@H](C)O)C(=O)N1)[C@@H](C)O)C(=O)N1CCC[C@H]1C(=O)N[C@@H](CO)C(=O)N[C@@H](CO)C(=O)N[C@H](C(=O)N[C@@H](CC(N)=O)C(=O)N[C@H](C(=O)NCC(=O)N1CCC[C@H]1C(=O)N[C@@H](CC(N)=O)C(=O)N[C@H](C(=O)N[C@@H](Cc1ccc(O)cc1)C(N)=O)[C@@H](C)O)C(C)C)[C@@H](C)O
notes: Analogue of human amylin; disulfide and C-terminal amide as told for h-amylin; also called compound 67
B2: N^-1-[(4S)-4-carboxy-4-(19-carboxynonadecanoylamino)butanoyl]-Gly[Arg1,His14,Arg17,Pro21,Pro27,His34]-h-amylin (peptide)
peptide: {C20 diacid-γGlu}-GRCNTATCATQRLAHFLRHSSPNFGAIPSSTNVGHNTY-NH2
modifications: disulfide 3-8
SMILES: CC[C@H](C)[C@H](NC(=O)[C@H](C)NC(=O)CNC(=O)[C@H](Cc1ccccc1)NC(=O)[C@H](CC(N)=O)NC(=O)[C@@H]1CCCN1C(=O)[C@H](CO)NC(=O)[C@H](CO)NC(=O)[C@H](Cc1c[nH]cn1)NC(=O)[C@H](CCCNC(=N)N)NC(=O)[C@H](CC(C)C)NC(=O)[C@H](Cc1ccccc1)NC(=O)[C@H](Cc1c[nH]cn1)NC(=O)[C@H](C)NC(=O)[C@H](CC(C)C)NC(=O)[C@H](CCCNC(=N)N)NC(=O)[C@H](CCC(N)=O)NC(=O)[C@@H](NC(=O)[C@H](C)NC(=O)[C@@H]1CSSC[C@H](NC(=O)[C@H](CCCNC(=N)N)NC(=O)CNC(=O)CC[C@H](NC(=O)CCCCCCCCCCCCCCCCCCC(=O)O)C(=O)O)C(=O)N[C@@H](CC(N)=O)C(=O)N[C@@H]([C@@H](C)O)C(=O)N[C@@H](C)C(=O)N[C@@H]([C@@H](C)O)C(=O)N1)[C@@H](C)O)C(=O)N1CCC[C@H]1C(=O)N[C@@H](CO)C(=O)N[C@@H](CO)C(=O)N[C@H](C(=O)N[C@@H](CC(N)=O)C(=O)N[C@H](C(=O)NCC(=O)N[C@@H](Cc1c[nH]cn1)C(=O)N[C@@H](CC(N)=O)C(=O)N[C@H](C(=O)N[C@@H](Cc1ccc(O)cc1)C(N)=O)[C@@H](C)O)C(C)C)[C@@H](C)O
notes: Analogue of human amylin extended by Gly at the N-terminus; disulfide and C-terminal amide as told for h-amylin; also called compound 100

Experiments:
rat calcitonin receptor [1] = target: T1, rat calcitonin receptor; experiment: SPA competition with 125I-calcitonin, membranes with rat calcitonin receptor (Assay VIII)
rat calcitonin receptor [2] = target: T1, rat calcitonin receptor; experiment: ratio of binding IC50 at rat calcitonin receptor to IC50 at rat amylin receptor (reference)
[3] = target: T2, rat amylin receptor (rat calcitonin …); experiment: SPA competition with 125I-rat amylin, membranes with rat calcitonin receptor + rat RAMP3 (Assay VI)
[4] = target: T3, human calcitonin receptor; experiment: ratio of binding IC50 at human calcitonin receptor to IC50 at human amylin receptor (reference)
Outline: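 Membranes (35 ng/μL final) + SPA beads, 50 mM Hepes pH 7.4 buffer with 1 mM CaCl2, 5 mM MgCl₂, 0.1% OA, 0.02% Tween20; 120 min, 25° C, shaking; centrifuged, counted; IC₅₀ by one-site binding competition.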

| Binder | IC50 (rat calcitonin receptor [1]) | Ratio rCT/rAmylin binding (rat calcitonin receptor [2]) | IC50 [3] | Ratio hCT/hAmylin binding [4] |
| --- | --- | --- | --- | --- |
| B1 | 14.7 nM | 85.4 | 0.172 nM | 51.6 |
| B2 | 311 nM | 27.7 | 11.2 nM | 65.3 |

— US20140087995A1 (published 2014)
